Data as given in patent publication US20200024322A1 (Eli Lilly, published 2020).

T1: human GIP receptor (human, UniProt P48546 22-466)
T1 construct: whole, on cells; also called hGIPR; hGIP-R
T1 sequence (looked up): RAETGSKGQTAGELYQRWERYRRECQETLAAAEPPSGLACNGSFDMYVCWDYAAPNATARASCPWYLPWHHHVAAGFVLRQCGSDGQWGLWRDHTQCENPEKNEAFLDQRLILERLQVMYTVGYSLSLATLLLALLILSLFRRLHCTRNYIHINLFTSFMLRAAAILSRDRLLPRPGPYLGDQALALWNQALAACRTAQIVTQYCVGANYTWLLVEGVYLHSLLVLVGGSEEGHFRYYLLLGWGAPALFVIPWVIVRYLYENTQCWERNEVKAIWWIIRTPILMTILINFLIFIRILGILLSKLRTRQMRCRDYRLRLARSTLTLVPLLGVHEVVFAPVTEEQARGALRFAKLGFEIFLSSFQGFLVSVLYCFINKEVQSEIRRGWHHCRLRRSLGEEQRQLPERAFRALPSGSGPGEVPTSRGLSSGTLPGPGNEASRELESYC


Columns and labels:
human GIP receptor = target: T1, human GIP receptor; assay: [125I]-GIP competition SPA, hGIPR membranes
human glucagon receptor = target: T2, human glucagon receptor (human, UniProt P47871 26-477); assay: [125I]-Gcg competition SPA, hGcgR membranes
T2 construct: whole, on cells; also called hGcgR; GcgR

human GLP-1 receptor = target: T3, human GLP-1 receptor (human, UniProt P43220 24-463); assay: [125I]-GLP-1 competition SPA, hGLP-1R membranes
T3 construct: whole, on cells; also called hGLP-1R; hGLP1R
Method in brief: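 Kᵢ values are geometric means (SEM) over replicates run on separate days, derived from IC₅₀ of four-parameter curve fits. Buffer: HEPES 25 mM pH 7.4 with CaCl₂ 2.5 mM, MgCl₂ 1 mM, bacitracin 0.1%, TWEEN-20 0.003%, EDTA-free protease inhibitors.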

T2 sequence (P47871 26-477): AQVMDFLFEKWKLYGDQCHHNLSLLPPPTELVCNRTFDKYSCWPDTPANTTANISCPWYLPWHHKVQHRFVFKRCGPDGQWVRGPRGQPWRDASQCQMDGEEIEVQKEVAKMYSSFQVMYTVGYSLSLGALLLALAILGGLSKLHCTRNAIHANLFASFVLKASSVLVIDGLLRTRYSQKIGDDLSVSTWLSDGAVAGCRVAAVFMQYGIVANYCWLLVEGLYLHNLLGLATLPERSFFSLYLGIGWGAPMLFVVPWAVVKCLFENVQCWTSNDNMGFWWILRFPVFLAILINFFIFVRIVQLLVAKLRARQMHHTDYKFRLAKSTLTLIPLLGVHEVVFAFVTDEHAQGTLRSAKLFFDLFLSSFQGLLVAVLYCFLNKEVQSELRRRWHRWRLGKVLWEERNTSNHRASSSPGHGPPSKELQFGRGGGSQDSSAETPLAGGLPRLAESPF

Row | Binder | Ki (human GIP receptor) | Ki (human glucagon receptor) | Ki (human GLP-1 receptor)
1 | YXEGTXTSDYSIXLDEKAQXEFIEXLIEGGPSSGAPPPS (Aib2; αMeF(2F)6; αMeL13; K17((2-[2-(2-Amino-ethoxy)-ethoxy]-acetyl)2-(γ-Glu)-CO-(CH2)18-CO2H); Aib20; αMeY25; C-terminal NH2) [Example 223] | 0.0921 nM | 46.5 nM | 5.62 nM
2 | YXEGTXTSDXSIXLDXKAQXAFIXXLIEGGPSSGAPPPS (Aib2; αMeF(2F)6; 4Pal10; αMeL13; Orn16; K17((2-[2-(2-Amino-ethoxy)-ethoxy]-acetyl)2-(γ-Glu)-CO-(CH2)16-CO2H); Aib20; D-Glu24; αMeY25; C-terminal NH2) [Example 240] | 0.0284 nM | 204 nM | 0.552 nM
3 | YXEGTXTSDYSIXLDEKAQXEFIXYLIEGGPSSGAPPPS (Aib2; αMeF(2F)6; Aib13; K17((2-[2-(2-Amino-ethoxy)-ethoxy]-acetyl)2-(γ-Glu)-CO-(CH2)18-CO2H); Aib20; D-Glu24; C-terminal NH2) [Example 224] | 0.0482 nM | 627 nM | 6.86 nM
4 | YXEGTXTSDYSIXLDEKAQXEFIXYLIEGGPSSGAPPPS (Aib2; αMeF6; αMeL13; K17((2-[2-(2-Amino-ethoxy)-ethoxy]-acetyl)2-(γ-Glu)-CO-(CH2)18-CO2H); Aib20; D-Glu24; C-terminal NH2) [Example 227] | 0.0146 nM | 113 nM | 2.01 nM
5 | YXEGTXTSDYSILLDEKAQXEFIXYLIEGGPSSGAPPPS (Aib2; αMeF(2F)6; K17((2-[2-(2-Amino-ethoxy)-ethoxy]-acetyl)2-(γ-Glu)-CO-(CH2)18-CO2H); Aib20; D-Glu24; C-terminal NH2) [Example 226] | 0.0254 nM | 200 nM | 4.1 nM
6 | YXEGTXTSDYSIXLDEKAQXEFIXXLIEGGPSSGAPPPS (Aib2; αMeF(2F)6; αMeL13; K17((2-[2-(2-Amino-ethoxy)-ethoxy]-acetyl)2-(γ-Glu)-CO-(CH2)18-CO2H); Aib20; D-Glu24; αMeY25; C-terminal NH2) [Example 222] | 0.0495 nM | 71.3 nM | 3.59 nM
7 | YXEGTXTSDYSIXLDEKAQXEFIXYLIEGGPSSGAPPPS (Aib2; αMeF(2F)6; αMeL13; K17((2-[2-(2-Amino-ethoxy)-ethoxy]-acetyl)2-(γ-Glu)-CO-(CH2)16-CO2H); Aib20; D-Glu24; C-terminal NH2) [Example 221] | 0.0414 nM | 154 nM | 1.77 nM
8 | YXEGTXTSDXSIXLDXKAQXAFIXXLIEGGPSSGAPPPS (Aib2; αMeF(2F)6; 4Pal10; αMeL13; Orn16; K17((2-[2-(2-Amino-ethoxy)-ethoxy]-acetyl)2-(εK)-CO-(CH2)18-CO2H); Aib20; D-Glu24; αMeY25; C-terminal NH2) [Example 251] | 0.0249 nM | 21.2 nM | 1.09 nM
9 | YXEGTXTSDYSIXLDHKAQXEFIXYLIEGGPSSGAPPPS (Aib2; αMeF(2F)6; αMeL13; K17((2-[2-(2-Amino-ethoxy)-ethoxy]-acetyl)2-(γ-Glu)-CO-(CH2)18-CO2H); Aib20; D-Glu24; C-terminal NH2) [Example 230] | 0.042 nM | 494 nM | 4.68 nM
10 | YXEGTXTSDLSIXLDXKAQXTFIXXLIEGGPSSGAPPPS (Aib2; αMeF(2F)6; αMeL13; Orn16; K17((2-[2-(2-Amino-ethoxy)-ethoxy]-acetyl)2-(γ-Glu)-CO-(CH2)16-CO2H); Aib20; D-Glu24; αMeY25; C-terminal NH2) [Example 243] | 0.0325 nM | 145 nM | 0.67 nM
11 | YXEGTXTSDYSIXLDXKAQXEFIXXLIEGGPSSGAPPPS (Aib2; αMeF(2F)6; αMeL13; Orn16; K17((2-[2-(2-Amino-ethoxy)-ethoxy]-acetyl)2-(γ-Glu)-CO-(CH2)16-CO2H); Aib20; D-Glu24; αMeY25; C-terminal NH2) [Example 236] | 0.0425 nM | 200 nM | 1.05 nM
12 | YXEGTXTSDVSIXLDXKAQXTFIXXLIEGGPSSGAPPPS (Aib2; αMeF(2F)6; αMeL13; Orn16; K17((2-[2-(2-Amino-ethoxy)-ethoxy]-acetyl)2-(γ-Glu)-CO-(CH2)16-CO2H); Aib20; D-Glu24; αMeY25; C-terminal NH2) [Example 241] | 0.042 nM | 167 nM | 0.799 nM
13 | YXEGTXTSDYSIXLDKKAQXEFIXYLIEGGPSSGAPPPS (Aib2; αMeF(2F)6; αMeL13; K17((2-[2-(2-Amino-ethoxy)-ethoxy]-acetyl)2-(γ-Glu)-CO-(CH2)16-CO2H); Aib20; D-Glu24; C-terminal NH2) [Example 231] | 0.0394 nM | 440 nM | 3.03 nM
14 | YXEGTXTSDXSIXLDXKAQXTFIXXLIEGGPSSGAPPPS (Aib2; αMeF(2F)6; 4Pal10; αMeL13; Orn16; K17((2-[2-(2-Amino-ethoxy)-ethoxy]-acetyl)2-(γ-Glu)-CO-(CH2)16-CO2H); Aib20; D-Glu24; αMeY25; C-terminal NH2) [Example 239] | 0.101 nM | 596 nM | 2.71 nM
15 | YXEGTXTSDLSIXLDXKAQXAFIXXLIEGGPSSGAPPPS (Aib2; αMeF(2F)6; αMeL13; Orn16; K17((2-[2-(2-Amino-ethoxy)-ethoxy]-acetyl)2-(γ-Glu)-CO-(CH2)16-CO2H); Aib20; D-Glu24; αMeY25; C-terminal NH2) [Example 244] | 0.0308 nM | 87.8 nM | 0.82 nM
16 | YXEGTXTSDYSIXLDKKAQXEFIXYLIEGGPSSGAPPPS (Aib2; αMeF(2F)6; αMeL13; K17((2-[2-(2-Amino-ethoxy)-ethoxy]-acetyl)2-(γ-Glu)-CO-(CH2)18-CO2H); Aib20; D-Glu24; C-terminal NH2) [Example 212] | 0.0978 nM | 205 nM | 2.76 nM
17 | YXEGTXTSDXSIXLDXKAQXAFIXXLIAGGPSSGAPPPS (Aib2; αMeF(2F)6; 4Pal10; αMeL13; Orn16; K17((2-[2-(2-Amino-ethoxy)-ethoxy]-acetyl)2-(εK)-CO-(CH2)18-CO2H); Aib20; D-Glu24; αMeY25; C-terminal NH2) [Example 252] | 0.00971 nM | 26 nM | 0.383 nM
18 | YXEGTXTSDVSIXLDXKAQXAFIXXLIEGGPSSGAPPPS (Aib2; αMeF(2F)6; αMeL13; Orn16; K17((2-[2-(2-Amino-ethoxy)-ethoxy]-acetyl)2-(γ-Glu)-CO-(CH2)16-CO2H); Aib20; D-Glu24; αMeY25; C-terminal NH2) [Example 242] | 0.0604 nM | 95.9 nM | 0.853 nM
